In the DeepSol protein solubility set:

Assay: soluble on expression in E. coli; label from the status in PepcDB or PDB records

Sequence | soluble on expression in E. coli
MAHHHHHHMGSCCAKSDTSVDIDDSGRGVERDTEDDNNVYILQYQSRGEVLKMLELEPTPHEASVMTQSPSLPTDGPAAEECAEAELSDPLSCSSTTIVTVRSERRAADRFSANSLTWTLPEVSATTVSTRFDHARTTSFMGSDDDFSSVEWSANSRKDRRLMLLRDRDRAAQRDMVMNEMDQRRFIAEHANRAHRAILVTYIRNRLEIERRVSYEEFLVERNAFLLHELEAREPLVRRTVELQAHSELLNKMQQQRLLRNRGK | soluble
MGHHHHHHSHMTVHIKVYSDYVCPFCFVGKAAFEEAIKGKDVEVEWMPFELRPSPSPQLDPVNDPSKQYMWQTSIQPMAEKLGVEINFPNVSPHPYTDLAFEGFHFAKEYNKGHEYNTRVFQAFFQEDQNIGDIDILTKLAEEVGLDGASFKSALETRTYQDVQRQALKHAYEEADITAVPTFIIGDTVIPGAAGKDVFEKAISDEQKKK | not soluble
MSLRWQWRIYEEPLQEPLTTAQGVWRSRSGIYLRLEDEQGQVGYGEIAPLPGWGSETLNADIALCQQLPGHLTPEIMATIPEALPAAQFGFATAWQSVGRLPYRVRPWPICALLGSGQAALEQWQQSWQRGQTTFKWKVGVMSPEEEQAILKALLAALPPGAKLRLDANGSWDRATANRWFAWLDRHGNGKIEYVEQPLPPDQWQALLSLAQTVTTAIALDESVVSAAEVQRWVDRGWPGFFVIKTALFGDPDSLSLLLRRGLEPQRLVFSSALEGAIARTAIFHLLETWQPCHALGFGVDRWRSAPLLTTLTAYERLWERLDQGHHHHHH | soluble
MSLRIIKAGLIGCGNISSIYFENVHRFKHLTIVACADLHLERARAQAEKYRIPKACTVAELLEDPEIELVINLTIPQVHAKVCIQALEAGKHVYTEKPLTITLEEGQKLLEKAKETGLLVGCAPDTFLGAGIQTSIQVIERGEIGTPVGASAFMIGRGHEHWHPDPAFYYDVGGGPMYDMGPYYLTALTALLGPMARVSGSARITYPERTILSEPKKGTKIKVSTPTHISGVIDFANGAIASITTSFDAFGGSVLPPIEVYGSEGTLLVPDPNTFDGPVQLRKRDEREFVEVPLTYHYTENNRGIGVADMAMSLLTGSDYRASGTMGFHVLEAMHGFHMSSTSGHHYQMKSTCRKPEPLPVDFRFSYVETEGHHHHHH | soluble
MGHHHHHHSHMAQSINITELNLPQLEMLKNQLDQEVEFLSTSIAQLKVVQTKYVEAKDCLNVLNKSNEGKELLVPLTSSMYVPGKLHDVEHVLIDVGTGYYVEKTAEDAKDFFKRKIDFLTKQMEKIQPALQEKHAMKQAVMEMMSQKIQQLTALGAAQATAKA | not soluble
MDKIEVRGARTHNLKNINLVIPRDKLIVVTGLSGSGKSSLAFDTLYAEGQRRYVESLSAYARQFLSLMEKPDVDHIEGLSPAISIEQKSTSHNPRSTVGTITEIHDYLRLLFARVGEPRCPDHDVPLAAQTVSQMVDNVLSQPEGKRLMLLAPIIKERKGEHTKTLENLASQGYIRARIDGEVCDLSDPPKLELQKKHTIEVVVDRFKVRDDLTQRLAESFETALELSGGTAVVADMDDPKAEELLFSANFACPICGYSMRELEPRLFSFNNPAGACPTCDGLGVQQYFDPDRVIQNPELSLAGGAIRGWDRRNFYYFQMLKSLADHYKFDVEAPWGSLSANVHKVVLYGSGKENIEFKYMNDRGDTSIRRHPFEGVLHNMERRYKETESSAVREELAKFISNRPCASCEGTRLRREARHVYVENTPLPAISDMSIGHAMEFFNNLKLAGQRAKIAEKILKEIGDRLKFLVNVGLNYLTLSRSAETLSGGEAQRIRLASQIGAGLVGVMYVLDEPSIGLHQRDNERLLGTLIHLRDLGNTVIVVEHDEDAIRAADHVIDIGPGAGVHGGEVVAEGPLEAIMAVPESLTGQYMSGKRKIEVPKKRVPANPEKVLKLTGARGNNLKDVTLTLPVGLFTCITGVSGSGKSTLINDTLFPIAQRQLNGATIAEPAPYRDIQGLEHFDKVIDIDQSPIGRTPRSNPATYTGVFTPVRELFAGVPESRARGYTPGRFSFNVRGGRCEACQGDGVIKVEMHFLPDIYVPCDQCKGKRYNRETLEIKYKGKTIHEVLDMTIEEAREFFDAVPALARKLQTLMDVGLTYIRLGQSATTLSGGEAQRVKLARELSKRGTGQTLYILDEPTTGLHFADIQQLLDVLHKLRDQGNTIVVIEHNLDVIKTADWIVDLGPEGGSGGGEILVSGTPETVAECEASHTARFLKPML | soluble
SLQLRPSFLLSSLRPSLTGARRLVETIFLGSRPWMPGTPRRLPRLPQRYWQMRPLFLELLGNHAQCPYGVLLKTHCPLRAAVTPAAGVCAREKPQGSVAAPEEEDTDPRRLVQLLRQHSSPWQVYGFVRACLRRLVPPGLWGSRHNERRFLRNTKKFISLGKHAKLSLQELTWKMSVRDCAWLRRSPGVGCVPAAEHRLREEILAKFLHWLMSVYVVELLRSFFYVTETTFQKNRLFFYRKSVWSKLQSIGIRQHLKRVQLREEG | not soluble
GSMPTTCGFPNCKFRSRYRGLEDNRHFYRIPKRPLILRQRWLTAIGRTEETVVSQLRICSAHFEGGEKKEGDIPVPDPTVDKQIKIELPPK | soluble
EKITILADAIPELHVEEANDKVMGSIDWEAALKQSAGKEDLAQEMLQMLVDFIPEVNEWIDKALESDISEEELCHYIHKLHGSSSYCGVPRLKQLCNLIETSLRQHQTISDIEPELFELQDEMEKVTKDANLLLSN | not soluble
MTDQERIELQKNNPLHGLKLETLLQELVDFYGWDILDTAMRFNCFHTKPSIASSVKYLNKTEWAREKLENFYLYRFKRMPRASSEEFTLPPRARTFPHGLHPKEPMALTVDSILKSQAKAASAHKERTSRSRYNQR | not soluble
MSLKHQETTSQQYNFSIIKHGDISTPQGFTAGGMHIGLRANKKDFGWIYSSSLASSAAVYTLNQFKAAPLIVTEDTLQKSKGKLQALVVNSANANSCTGQQGIDDARQTQTWVAQQLQIPSEHVAVASTGVIGEYLPMDKIKTGTEHIKDTNFATPGAFNEAILTTDTCTKHIAVSLKIDGKTVTIGGSAKGSGMIHPNMATMLAFITTDASIESNTLHQLLKSSTDHTFNMITVDGDTSTNDMVLVMANHQVEHQILSQDHPQWETFVDAFNFVCTFLAKAIARDGEGATKLISVNVSGAKSISDARKIGKTIVSSNLVKSAIFGEDANFGRIITAIGYSGCEIDPKCTYVQLNQIPVVDKGMAVLFDEQAMSNTLTHEHVTIDVQLGLGNAAATAYGCDLSYDYVRINASYRTEGHHHHHH | soluble
MQSTFRRSTLAALRGFALPSDAISIVPSAADYRRCLLEKIASATRRIYIIALYLQQDEAGQEILDALYAAKAARPELDVVVLVDWFRAQRGLIGAGRQPGNSTWYQAQNLEYDEEVPIYGVPVQTRELFGVLHLKGSVIDDCVIYSGASINNVYLHKLDKYRLDRYHLIESAPLADSFEHLVQREILPSAAVHRLDLQSPPSSRSLRSEIRAFRSDLKRATYDTSAGDKENGQLRVIPLLGVGPRNSLNRAICDLIASSKIQLTICTPYFNLPVAVTREVNRALKRGVKVDIIIGDKTANDFFIDPDEPFKVISALPYLYEISLRRFAHKHQKAIAQQRLNVHLWKHGDNTFHLKGIWVDQRYTLLTGNNLNPRAFNLDLENGLLIDDPQGQWTDPREAEIAQLMRNTQRVNQYDELDTLANYPEGVRKFLKRVSRVRVERLLYRILLEHHHHHH | not soluble
MQTSFCVLVSIIERMPTWNDIKVRNPQHSHNYAKRWENLEAEGNDINGEARLIDALVQRGSKILDAGCGQGRVGGYLSARGHIVTGIDIDDYLISEAEKKFPSATWHVGDLGSESIPDQGFDIAVCAGNVITFIEPDKQEAALAHIFEALRPNGRCIIGFGAGRGYVFPQFFEDARNVGFVIENNFESWGLNPLTNRSQFLVAFLRKPELEHHHHHH | not soluble
MHMVTYPCLTSRRFQLALIHRRVVDKRTSMHSRTASESTGARIHRPWCARHQVRPAWRCQYDKLHRVPFRSPELRLDSGPGYTTGSYRYMAGDPLEHHHHHH | not soluble
MPRVKAAQAGRQSSAKRHLAEQFAVGEIITDMAKKEWKVGLPIGQGGFGCIYLADMNSSESVGSDAPCVVKVEPSDNGPLFTELKFYQRAAKPEQIQKWIRTRKLKYLGVPKYWGSGLHDKNGKSYRFMIMDRFGSDLQKIYEANAKRFSRKTVLQLSLRILDILEYIHEHEYVHGDIKASNLLLNYKNPDQVYLVDYGLAYRYCPEGVHKEYKEDPKRCHDGTIEFTSIDAHNGVAPSRRGDLEILGYCMIQWLTGHLPWEDNLKDPKYVRDSKIRYRENIASLMDKCFPEKNKPGEIAKYMETVKLLDYTEKPLYENLRDILLQGLKAIGSKDDGKLDLSVVENGGLKAKTITKKRKKEIEESKEPGVEDTEWSNTQTEEAIQTRSRTRKRVQK | soluble
MGSDKIHHHHHHMKIEFDVVVVGAGPSGLSCAYVLAKNGLKVAVVEKGEYPGSKNVMGGVLYVHPLKEIMPDFLEKAANSKALERNVIEQNLWLLGNEGVIKIGHRNVEWKENPNAFTVLRANFDRWFAQEVEKAGALIIPKTKVEDFLRNEKGEIAGVVTSRPKGEIHSKAVVIAEGVNPILTMKAGLRKEDLKPHMVAVAVKEVISVPEDVVNRVFGVEGNDGATIELLGSWSEGMFGMGFLYANRSSVSLGCGVLLEDLRKKKIKPYQLLENLKNHPVISDMLGEYRNNTMEYLAHLIPEGGYYAMPKVYGDRVLVCGDAAMLVNSIHREGSNHAITSGRLAAETLLEAFEKGDFSEKILKNYYLRLKESFILKDLEKYKDLMPTMEKNHQFVEIYPDLANDALKRFLQVDGTPKWDVQKQIADMVLSRRSLIGISLDLLRFWRAVR | not soluble
MIDRLAMIGVNVKTASREHVARLEKEWEKHLDTIGYASRGTVIIATCNRFEVYLDSPSRLVEDLASSIASPGGEGLVRLQGIDAARHLFRVASGLESQIIGDHEVLGQVRRAWLKSREKGFTTPLLDEVFHRALKTGARVRSESAISSGGVGYSSAAVSLAASLLGGGLDGARVGIVGAGMAAVGIARALCTRWRPRVVAVFNRTPERGWEVAGKCRGVESLVLPLDELAKLINELDALFVAIAGSTNILERGRVERGVSPRVIVDISNPPVTPKVAGRVFHMPEVEEEAKRMMEERLRWIPAAEAIIEEELEALLDALSRRRARESSRSVMRALSILAEREYERTLAGLRNGVDPREAVELALNSYTKKVGGALRRLLEEASDRGQLSLEDIEAILVSEFARIAENSGFKNGSTG | soluble
MGSDKIHHHHHHMAFRGWKKLPIRIETGEMVEAIAPVIVSASRATDIPAFHAEWFMTRLRAGYVQWCNPFNARQTQYVSFRKTRAVIFWSKNPAPLLPHLSELDAIGINYSFQFTLNDYEAEGLEPYVLPLAKRIETFRRLASHIGPERVVWRFDPLVLTGRLTADMLLERIGRLAEALGGQTRKLVISFADIECYRAVRLRLSRMGAGAREFAPEEMDEFAARLVERNKDWGLELSACAEDSELAGIAKSRCIDGHVLASCFGDDAELMEFLGGSTLFPGDAPVSVALKHQGQRKACGCIVSKDIGVYGTCQHGCRYCYACR | not soluble
MGSDKIHHHHHHVTSGQDKPWPPVSMGMARLTTMAFHGENMVPPAIELLKRSEADPTDSAALLDLSAIHFLLGHEEAGLAYQERALAQNQVYRDHSETASEDGVRLLAFAAPGNLMSNVPIQFLIENSDIRLDVLYVVPGLDLPERVPAHDMAMVIAGESEPNREVLERIAAFADLWPCPPVLNDPRKVLQLSRDGVSSLLSGVPGIRIPATTRVDPESLARLGRGEIALTDLLPDGSFPVIARPLDSHAGKGLAKLDDPSTIALYLAAQPAEGYYLSSFVDYRGAGGMFRKYRIALIDGKPFVCHMAVSAHWMIHYLNADMRESAEKRAEEAQAFATFDEDFAARHKDAFATMAERIGLDYFAMDCAETPDGDLLVFEADTAMIVHAMDPPDIFPYKAPQMRRIFKAFQDMLRRIKQDKQD | not soluble
